Data as given in patent US7786071B2 (priority 2003, dated 2010).
Where a chain is given by its changes, count along the chain named. In names and notes the source's numbering stands. Where two headings read alike, the source gives them in different places.

Tests used:
[1] = read-out: Kd for the first (higher affinity) calcium; cited from earlier work
[2] = read-out: KM for L-HcyT hydrolysis; cited from earlier work
[3] = read-out: KM(Paraoxon); cited from earlier work
[4] = read-out: KM(PheAc); cited from earlier work
[5] = assay type: biochemical; settings: read-out: KM for L-Hcy hydrolysis
[6] = assay type: biochemical; settings: read-out: 2-Naphthyl acetate KM
[7] = assay type: biochemical; settings: read-out: Dihydrocoumarin KM
[8] = assay type: biochemical; settings: pH 8; for Km: read-out: KM(Paraoxon)
[9] = assay type: biochemical
[10] = assay type: biochemical; remark: listed apart in the source
[11] = assay type: biochemical; settings: read-out: DEPCyC hydrolysis KM

B1: RabPON1: wild-type rabbit PON1, GenBank Accession No. AF220943 (protein, listed as Rattus norvegicus)
chain: MAKLLGLTLVGLVLALYKNHRSSYQTRLNAFREVTPVDLPNCTLVKGIEAGAEDLEILPNGLTFFSTGLKYPGIKSFDPSKPGKILLMDLNEKEPAVSELAIMGNTLDMSSFNPHGISTFIDEDNTVYLLVVSHPDSSSTVEVFKFQEEERSLLHLKTITHELLPSINDIAAVGPESFYATNDHYFADPYLRSWEMYLGLSWSNVVYYSPDKVRVVADGFDFANGIGISLDGKYVYIAELLAHKIHVYEKHANWTLTPLKVLSFDTLVDNISVDPVTGDLWVGCHPNGMRIFFYDSENPPGSEVLRIQSILSEDPKVTVVYAENGTVLQGTTVAAVYKGKLLIGTVFHRALCCDL
[1]
  Kd: 50 nM

B2: hPON1: wild-type human PON1; kinetic values for enzyme purified from sera; SEQ ID NO: 24, 36 (protein, listed as Homo sapiens)
chain: MAKLIALTLLGMGLALFRNHQSSYQTRLNALREVQPVELPNCNLVKGIETGSEDLEILPNGLAFISSGLKYPGIKSFNPNSPGKILLMDLNEEDPTVLELGITGSKFDVSSFNPHGISTFTDEDNAMYLLVVNHPDAKSTVELFKFQEEEKSLLHLKTIRHKLLPNLNDIVAVGPEHFYGTNDHYFLDPYLQSWEMYLGLAWSYVVYYSPSEVRVVAEGFDFANGINISPDGKYVYIAELLAHKIHVYEKHANWTLTPLKSLDFNTLVDNISVDPETGDLWVGCHPNGMKIFFYDSENPPASEVLRIQNILTEEPKVTQVYAENGTVLQGSTVASVYKGKLLIGTVFHKALYCEL
[2]
  Km: 23000 µM
[3]
  Km: 540 µM
[1]
  Kd: 360 nM
[4]
  Km: 420 µM

B3: G3H8: third-round rPON1 variant, unmodified 355 aa protein without tags; SEQ ID NO: 29 (DNA), 61 (protein) (protein)
chain: MAKLTAPTLLGLGLALFDRQKSSFQTRFNVHREVTPVELPNCNLVKGIDNGSEDLEILPNGLAFISSGLKYPGIMSFDPDKSGKILLMDLNEEDPVVLELGITGSTFDLSSFNPHGISTFTDEDNTVYLLVVNHPDSSSTVEVFKFQEKERSLLHLKTIRHKLLPSVNDIVAVGPESFYATNDHYFADPYLKSWEMHLGLAWSFVTYYSPNDVRVVAEGFDFANGINISPDGKYVYIAELLAHKIHVYEKHANWTLTPLKSLDFNTLVDNISVDPVTGDLWVGCHPNGMRIFYYDPENPPGSEVLRIQDILSKEPKVTVVYAENGTVLQGSTVAAVYKGKLLIGTVFHKALYCDL
modifications: In vitro evolved PON variant G3H8
[5]
  Km: ~19000 µM
[6]
  Km: 110 µM
[7]
  Km: 76 µM
[8]
  kcat(Paraoxon): 1.2 s⁻¹
  Km: 88 µM
[9]; pH 8
  kcat (PheAc): 1018 s⁻¹
[9]; pH 8, read-out: KM(PheAc)
  Km: 320 µM

B4: G1A5: first-round directly evolved PON1 variant, thioredoxin-fused; SEQ ID NO: 25 (DNA), 57 (protein) (protein)
chain: MAKLTALTLLGLGLALFDGQKSSFQTRFNVHREVTPVELPNCNLVKGIDNGSEDLEILPNGLAFISSGLKYPGIMSFDPDKSGKILLMDLNEEDPVVLELGITGNTLDISSFNPHGISTFIDEDNTVYLLVVNHPDSSSTVEVFKFQEKEKSLLHLKTIRHKLLPSVNDIVAVGPEHFYATNDHYFIDPYLKSWEMHLGLAWSFVTYYSPNDVRVVAEGFDFANGINISPDGKYVYIAELLAHKIHVYEKHANWTLTPLKSLDFNTLVDNISVDPVTGDLWVGCHPNGMRIFYYDPENPPGSEVLRIQNILSKEPKVTVVYAENGTVLQGTTVASVYKGKLLIGTVFHKALYCEL
modifications: thioredoxin-fused; In vitro evolved PON variant G1A5
[6]
  Km: 80 µM
[7]
  Km: 120 µM
[8]
  kcat(Paraoxon): 1.16 s⁻¹
  Km: 85 µM
[9]; pH 8
  kcat (PheAc): 833 s⁻¹
[9]; pH 8, read-out: KM(PheAc)
  Km: 390 µM

B5: 7HY: G3C9-derived PON1 variant, mutations F292V, Y293D, I109M; SEQ ID NO: 74, 75 (protein)
chain: MAKLTALTLLGLGLALFDGQKSSFQTRFNVHREVTPVELPNCNLVKGVDNGSEDLEILPNGLAFISSGLKYPGIMSFDPDKSGKILLMDLNEEDPVVLELGITGNTLDMSSFNPHGISTFTDEDNTVYLLVVNHPDSSSTVEVFKFQEEEKSLLHLKTIRHKLLPSVNDIVAVGPEHFYATNDHYFADPYLKSWEMHLGLAWSFVTYYSPNDVRVVAEGFDFANGINISPDGKYVYIAELLAHKIHVYEKHANWTLTPLKSLDFDTLVDNISVDPVTGDLWVGCHPNGMRIVDYDPKNPPGSEVLRIQDILSEEPKVTVVYAENGTVLQGSTVAAVYKGKLLIGTVFHKALYCEL
modifications: In vitro evolved PON variant 7HY
[10]
  shift in substrate selectivity: up to 4,600 fold

B6: G3C9: third-round highly soluble rPON1 variant without tags, wt-like activity; SEQ ID NO: 55 (DNA), 56 (protein) (protein)
chain: B5 chain with M109I, V292F, D293Y
modifications: In vitro evolved PON variant G3C9
[11]
  Km: 70 µM
[8]
  kcat(Paraoxon): 1.1 s⁻¹
  Km: 94 µM
[9]; pH 8
  kcat (PheAc): 789 s⁻¹
[9]; pH 8, read-out: KM(PheAc)
  Km: 330 µM
[9]; read-out: Phenylacetate hydrolysis KM
  Km: 330 µM
